Test results published in publication PMC5813103, “Hydroxynitrile lyases from cyanogenic millipedes: molecular cloning, heterologous expression, and whole-cell biocatalysis for the production of (R)-mandelonitrile” (Scientific Reports, 2018).

Molecular target: Hydroxynitrile lyase from Nedyopus tambanus tambanus (NttHNL) (Nedyopus tambanus tambanus)
Experiment: SEC; gel filtration of the purified native enzyme; Superdex 200 10/300 equilibrated with PBS; native 52400 Da against 28800 Da on SDS-PAGE

Hydroxynitrile lyase from Nedyopus tambanus tambanus (NttHNL) (enzyme)
stoichiometry N: 2
